Experimental data as given in patent US20210032365A1 (Chugai, published 2021).
Numbering of substitutions follows the chain as printed. Numbers in names are those of the source.

T1: human C1s (human, UniProt P09871 16-688)
T1 construct: also called hC1s; serum-derived human C1s (CompTech)
T1 sequence: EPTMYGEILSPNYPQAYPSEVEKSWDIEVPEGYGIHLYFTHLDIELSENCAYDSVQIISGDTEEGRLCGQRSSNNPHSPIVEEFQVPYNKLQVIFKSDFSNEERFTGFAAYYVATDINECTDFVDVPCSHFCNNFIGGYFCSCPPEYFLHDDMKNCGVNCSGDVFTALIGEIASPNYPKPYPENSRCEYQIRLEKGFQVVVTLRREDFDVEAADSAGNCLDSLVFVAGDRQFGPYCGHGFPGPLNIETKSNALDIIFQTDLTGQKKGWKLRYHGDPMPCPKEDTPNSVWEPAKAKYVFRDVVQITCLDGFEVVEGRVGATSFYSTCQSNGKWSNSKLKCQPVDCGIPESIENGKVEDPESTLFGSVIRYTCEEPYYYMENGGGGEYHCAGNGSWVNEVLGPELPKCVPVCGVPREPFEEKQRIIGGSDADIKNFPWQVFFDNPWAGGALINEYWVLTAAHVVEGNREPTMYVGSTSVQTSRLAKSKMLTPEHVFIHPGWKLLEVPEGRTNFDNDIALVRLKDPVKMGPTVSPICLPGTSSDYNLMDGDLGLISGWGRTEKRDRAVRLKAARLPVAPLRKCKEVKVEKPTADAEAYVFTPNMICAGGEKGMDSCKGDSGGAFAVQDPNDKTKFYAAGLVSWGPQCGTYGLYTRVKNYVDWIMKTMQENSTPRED

T2: human C1s (human, UniProt P09871 16-688)
T2 construct: Analyte in the Biacore assays; also called hC1s; serum-derived human C1s (CompTech)
T2 sequence: T1 sequence

B1: C1_IPN92H0033-SG4GK/IPN009VK3-SK1 (antibody, human IgG4 S228P, kappa)
heavy: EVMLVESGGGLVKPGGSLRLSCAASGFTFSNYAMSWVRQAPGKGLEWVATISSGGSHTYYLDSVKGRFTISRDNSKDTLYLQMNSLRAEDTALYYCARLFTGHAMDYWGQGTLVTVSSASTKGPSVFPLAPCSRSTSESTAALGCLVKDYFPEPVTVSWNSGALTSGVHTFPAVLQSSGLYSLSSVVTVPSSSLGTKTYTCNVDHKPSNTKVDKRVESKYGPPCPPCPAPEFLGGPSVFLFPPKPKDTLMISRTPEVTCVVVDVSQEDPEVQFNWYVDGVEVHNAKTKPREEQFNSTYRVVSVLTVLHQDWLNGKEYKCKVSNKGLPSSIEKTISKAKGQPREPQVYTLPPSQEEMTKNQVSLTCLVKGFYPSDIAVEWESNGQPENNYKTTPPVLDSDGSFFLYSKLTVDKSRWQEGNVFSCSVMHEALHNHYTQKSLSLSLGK
light: QIVLTQSPATLSLSPGERATLSCTASSSVSSSYLHWYQQKPGKAPKLWIYSTSNLASGVPSRFSGSGSGTDYTLTISSLQPEDFATYYCHQYYRLPPITFGQGTKLEIKRTVAAPSVFIFPPSDEQLKSGTASVVCLLNNFYPREAKVQWKVDNALQSGNSQESVTEQDSKDSTYSLSSTLTLSKADYEKHKVYACEVTHQGLSSPVTKSFNRGEC
notes: VH = IPN009VH2 with Y99H (Kabat); also called IPN92H0033/IPN009VK3
B2: C1_IPN92H0026-SG4GK/IPN009VK3-SK1 (antibody, human IgG4 S228P, kappa, name in Kabat numbering, V domains shown)
VH: EVMLVESGGGLVKPGGSLRLSCAASGFTFSNYAMSWVRQAPGKGLEWVATISSGGSHTYYLDSVKHRFTISRDNSKDTLYLQMNSLRAEDTALYYCARLFTGYAMDYWGQGTLVTVSS
VL: QIVLTQSPATLSLSPGERATLSCTASSSVSSSYLHWYQQKPGKAPKLWIYSTSNLASGVPSRFSGSGSGTDYTLTISSLQPEDFATYYCHQYYRLPPITFGQGTKLEIKR
notes: also called IPN92H0026/IPN009VK3
B3: C1_IPN92H0288-SG4GK/IPN93L0058-SK1 (antibody, human IgG4 S228P, kappa)
heavy: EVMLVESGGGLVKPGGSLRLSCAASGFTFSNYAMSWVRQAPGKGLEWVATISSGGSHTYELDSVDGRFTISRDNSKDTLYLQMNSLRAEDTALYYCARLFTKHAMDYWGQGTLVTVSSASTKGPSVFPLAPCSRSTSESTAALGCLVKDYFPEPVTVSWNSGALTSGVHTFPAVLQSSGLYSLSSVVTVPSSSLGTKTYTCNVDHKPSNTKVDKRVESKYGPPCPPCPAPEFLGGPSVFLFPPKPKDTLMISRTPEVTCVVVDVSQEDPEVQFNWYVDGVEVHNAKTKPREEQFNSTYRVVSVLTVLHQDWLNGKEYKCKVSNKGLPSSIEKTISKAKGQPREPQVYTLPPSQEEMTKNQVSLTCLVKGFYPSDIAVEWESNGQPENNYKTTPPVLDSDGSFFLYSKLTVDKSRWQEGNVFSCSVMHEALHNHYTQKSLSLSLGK
light: B1 light with S28E, P96H
notes: also called IPN92H0288/IPN93L0058
B4: C1_IPN009VH2-SG4GK/IPN93L0024-SK1 (antibody, human IgG4 S228P, kappa)
heavy: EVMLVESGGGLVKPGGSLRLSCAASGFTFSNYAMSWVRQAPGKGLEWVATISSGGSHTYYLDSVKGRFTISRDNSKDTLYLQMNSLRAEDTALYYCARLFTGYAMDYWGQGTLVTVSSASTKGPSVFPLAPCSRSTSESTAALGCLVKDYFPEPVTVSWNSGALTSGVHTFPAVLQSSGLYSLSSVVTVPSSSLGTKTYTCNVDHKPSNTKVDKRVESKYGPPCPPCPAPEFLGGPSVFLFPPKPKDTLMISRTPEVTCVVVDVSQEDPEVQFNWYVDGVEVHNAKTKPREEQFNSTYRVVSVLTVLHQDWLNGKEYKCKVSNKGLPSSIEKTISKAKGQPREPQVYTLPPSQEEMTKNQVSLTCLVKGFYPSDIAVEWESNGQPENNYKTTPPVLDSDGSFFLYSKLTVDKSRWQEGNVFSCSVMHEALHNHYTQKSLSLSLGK
light: B1 light with P96H
notes: VL = IPN009VK3 with P95H (Kabat); also called IPN009VH2/IPN93L0024
B5: C1_IPN009VH2-SG4GK/IPN93L0023-SK1 (antibody, human IgG4 S228P, kappa, name in Kabat numbering)
heavy: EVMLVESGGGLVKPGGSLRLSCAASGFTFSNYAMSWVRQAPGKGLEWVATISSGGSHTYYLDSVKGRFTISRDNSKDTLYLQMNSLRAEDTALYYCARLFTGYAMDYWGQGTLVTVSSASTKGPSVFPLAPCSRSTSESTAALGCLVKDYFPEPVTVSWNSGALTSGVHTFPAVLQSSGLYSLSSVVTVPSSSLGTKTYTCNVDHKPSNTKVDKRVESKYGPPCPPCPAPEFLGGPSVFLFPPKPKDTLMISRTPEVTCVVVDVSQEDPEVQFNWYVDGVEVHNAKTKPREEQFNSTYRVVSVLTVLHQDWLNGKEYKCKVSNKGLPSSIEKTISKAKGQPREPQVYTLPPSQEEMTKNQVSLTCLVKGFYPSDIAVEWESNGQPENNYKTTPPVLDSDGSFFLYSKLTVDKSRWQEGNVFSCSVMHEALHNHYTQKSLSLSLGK
light: B1 light with L95H
notes: also called IPN009VH2/IPN93L0023

Legend:
human C1s [1] = target: T1, human C1s; experiment: SPR, Ab captured; pH 5.8, 3 uM Ca
Protocol: (§1) All variants were transiently expressed and purified by the method described above. The binding affinity of each histidine-substituted variant at pH 7.4 and pH 5.8 was determined at 37 degrees C. using Biacore T200 instrument (GE Healthcare). Recombinant Protein A/G (Pierce) was immobilized onto all flow cells of a CM4 sensor chip using an amine coupling kit (GE Healthcare). Antibodies and analytes were prepared in 7(+) buffer (20 mM ACES, 150 mM NaCl, 1.2 mM CaCl2, 0.05% Tween 20, 0.005% NaN3, pH 7.4), 5(+) buffer (20 mM ACES, 150 mM NaCl, 1.2 mM CaCl2, 0.05% Tween 20, 0.005% NaN3, pH 5.8), or 5(−) buffer (20 mM ACES, 150 mM NaCl, 3 micro M CaCl2, 0.05% Tween 20, 0.005% NaN3, pH 5.8). Each antibody was captured onto the sensor surface by protein A/G. Antibody capture levels were aimed at 200 resonance unit (RU). Serum-derived human C1s (CompTech) or recombinant C1s prepared in EXAMPLE 1 was injected at 50 nM, followed by dissociation. The sensor surface was regenerated in each cycle with 10 mM Glycine-HCl, pH 1.5. […] The ratio of KD 5.8+ to KD 7.4+(“KD 5+/7+”) and that of KD 5.8− to KD 7.4+(“KD 5−/7+”) were calculated. When the KD 5+/7+ or KD 5−/7+ of a variant is larger than that of the parent antibody IPN009VH2-SG4GK/IPN009VK3-SK1, that variant is considered to be “pH”- or “pH and Ca”-dependent, respectively. When binding response in 5(+) buffer and/or in 5(−) buffer of a variant is much lower than that of IPN09VH2/IPN009VK3, that variant is also considered as “pH”- and/or “pH and Ca”-dependent. Therefore, such mutations are effective to generate “pH”- and/or “pH and Ca”-dependent antibody. To further enhance “pH” and/or “pH and Ca” dependency, a combination of histidine mutations was conducted. Antibodies with combinations of histidine mutations were evaluated using Biacore by the method described above.

human C1s [2] = target: T1, human C1s; experiment: SPR; KD pH 5.8 1.2 mM Ca / KD pH 7.4 1.2 mM Ca
Protocol: as §1

human C1s [3] = target: T1, human C1s; experiment: SPR, Ab captured; pH 5.8, 1.2 mM Ca
Protocol: as §1

human C1s [4] = target: T1, human C1s; experiment: SPR; KD pH 5.8 3 uM Ca / KD pH 7.4 1.2 mM Ca
Protocol: as §1

human C1s [5] = target: T1, human C1s; experiment: SPR, Ab captured; pH 7.4, 1.2 mM Ca
Protocol: as §1

human C1s [6] = target: T2, human C1s; experiment: SPR (Biacore T200, 37C), Ab captured on protein A/G; pH 7.4, 1.2 mM Ca
Protocol: as §1

human C1s [7] = target: T2, human C1s; experiment: SPR (Biacore T200, 37C), Ab captured on protein A/G; pH 5.8, 1.2 mM Ca
Protocol: as §1

human C1s [8] = target: T2, human C1s; experiment: SPR; KD at pH 5.8 (3 uM Ca) over KD at pH 7.4 (1.2 mM Ca)
Protocol: as §1

human C1s [9] = target: T2, human C1s; experiment: SPR (Biacore T200, 37C), Ab captured on protein A/G; pH 5.8, 3 uM Ca
Protocol: as §1

human C1s [10] = target: T2, human C1s; experiment: SPR; KD at pH 5.8 (1.2 mM Ca) over KD at pH 7.4 (1.2 mM Ca)
Protocol: as §1

Binder | koff (human C1s [1]) | kon (human C1s [1]) | KD 5(+)/7(+) (human C1s [2]) | koff (human C1s [3]) | kon (human C1s [3]) | KD 5(-)/7(+) (human C1s [4]) | koff (human C1s [5]) | kon (human C1s [5]) | Kd (human C1s [1]) | Kd (human C1s [3]) | Kd (human C1s [5]) | koff (human C1s [6]) | kon (human C1s [6]) | koff (human C1s [7]) | kon (human C1s [7]) | KD 5(-)/7(+) (human C1s [8]) | koff (human C1s [9]) | kon (human C1s [9]) | KD 5(+)/7(+) (human C1s [10])
B1 | 0.00635 s⁻¹ | 664000 M⁻¹ s⁻¹ | 0.7 | 0.000372 s⁻¹ | 722000 M⁻¹ s⁻¹ | 12.1 | 0.00026 s⁻¹ | 328000 M⁻¹ s⁻¹ | – | – | – | – | – | – | – | – | – | – | –
B2 | 0.00171 s⁻¹ | 665000 M⁻¹ s⁻¹ | 0.4 | 0.000162 s⁻¹ | 729000 M⁻¹ s⁻¹ | 4.7 | 0.000236 s⁻¹ | 430000 M⁻¹ s⁻¹ | 2.58 nM | 0.222 nM | 0.549 nM | – | – | – | – | – | – | – | –
B3 | – | – | – | – | – | – | – | – | – | – | – | 0.000548 s⁻¹ | 654000 M⁻¹ s⁻¹ | 0.0143 s⁻¹ | 732000 M⁻¹ s⁻¹ | 9.5 | 0.00401 s⁻¹ | 504000 M⁻¹ s⁻¹ | 23.3
B4 | 0.132 s⁻¹ | 5.92e+06 M⁻¹ s⁻¹ | 1.6 | 0.00149 s⁻¹ | 384000 M⁻¹ s⁻¹ | 9.1 | 0.000574 s⁻¹ | 233000 M⁻¹ s⁻¹ | – | – | – | – | – | – | – | – | – | – | –
B5 | 0.092 s⁻¹ | 6.67e+06 M⁻¹ s⁻¹ | 0.8 | 0.00131 s⁻¹ | 716000 M⁻¹ s⁻¹ | 6.3 | 0.000725 s⁻¹ | 332000 M⁻¹ s⁻¹ | 13.8 nM | 1.83 nM | 2.18 nM | – | – | – | – | – | – | – | –
